{"source": "paper PMC8106670", "key": {"[1]": {"biological_target": "^HisBamA_(N427C) (E. coli) (UniProt P0A940)", "assay": "cross-linking"}, "[2]": {"biological_target": "^HisBamA_(T809C) (E. coli) (UniProt P0A940)", "assay": "cross-linking"}}}
{"substance": "^MBP−76EspP_(T984C) (from UniProt Q7BSW5 948-1300)", "values": [{"measurement": "percent disulfide-bonded", "setting": "[1]", "result": 40, "unit": "%"}, {"measurement": "percent disulfide-bonded", "setting": "[2]", "result": 50, "unit": "%"}]}
